Test system: mouse MIST (Mast Cell-specific Immunoreceptor Signal Transducer)

## Lyn kinase
  tyrosine phosphorylation of MIST: MIST was evidently phosphorylated by Lyn kinase among tyrosine kinases present in the mast cell

From patent US20040229237
